Source: patent publication US20160280786A1
Positions count from the first letter of the chain named.

B1: 4CTLAPMP11E3 (VHH)
VHH: EVQLVESGGGLVEPGGSLRLSCAASGSISSYNVMGWYRQAPGQQRDLVAHIASNGEIMYADSAKGRFTISRDNAKKTVYLQMNSLKPEDTAVYYCKLWVLGNDYWGQGTQVTVSS
B2: 4CTLAPMP12H2 (VHH)
VHH: B1 VHH with G108R
B3: 4CTLAPMP2G9 (VHH)
VHH: EVQLVKSGGQLVQAGGSLRLSCAATGRTYNSYPLGWFRQAPGKEREFVAAISASGTLRAYADSVKGRFTISRDSAKNTVYLQMNNLKPEDTAVYYCARARSVGWRASHHLSDYDNWGQGTQVTVSS
B4: 4CTLAPMP02F2 (VHH)
VHH: EVQLMESGGGLVQTGGSLRLSCAASGRTFSNYTMGWFRQAPGKDREFVAAISRSGSLKAYADSVKGRFTPSRDNAKKMAYLQMNSLKPEDTAVYYCAAAPVPWGTRPSLFPYDSWGQGTQVTVSS
B5: 4CTLAPMP02G2 (VHH)
VHH: B4 VHH with M5V, G8R, A59S, P70I, L109F, P111T
B6: 4CTLAPMP02F4 (VHH)
VHH: B4 VHH with M5V, S56A, L109F
B7: 4CTLAPMP02A5 (VHH)
VHH: EVQLVESGGGLVQAGGSLRLSCAASGRTNSTTLMGWSRRAPGKEREFVAAISGSGTLTSYADSVKGRFAISRDNAKNTVYLQMNSLKPEDTAIYYCAAGLTSWALIPSRTLTTWGQGTQVTVSS
B8: 4CTLAPMP06C10 (VHH)
VHH: EVQLVESGGGLVQAGGSLRLSCAASGRTFSNYTIAYFRQAPGREREFAAAISPHGTLRSFADSVKDRFTISRDNAKNTVWLQMNSLKLEDTAVYYCAADPSGWGLRQHSENEYPYWGLGTQVTVSS
B9: 4CTLAPMP03C4 (VHH)
VHH: EVQLVESGGGLVQAGGSLRLSCAASGGTFSFYGMGWFRQAPGKEREFVADIRTSAGRTYYADSVKGRFTISRDNAKNTVYLQMNSLKPEDTAVYYCAAEMSGISGWDYWGQGTQVTVSS
B10: 4CTLAPMP11F1 (VHH)
VHH: B9 VHH with R45Q

Molecular target: cynomolgus monkey CTLA4 (human CTLA4 cDNA with S13N, I17T and L105M) on stably transfected CHO-K1 cells (human cDNA mutated to the cynomolgus monkey extracellular domain) (UniProt P16410)
Sequence (P16410 36-223, stated change not applied): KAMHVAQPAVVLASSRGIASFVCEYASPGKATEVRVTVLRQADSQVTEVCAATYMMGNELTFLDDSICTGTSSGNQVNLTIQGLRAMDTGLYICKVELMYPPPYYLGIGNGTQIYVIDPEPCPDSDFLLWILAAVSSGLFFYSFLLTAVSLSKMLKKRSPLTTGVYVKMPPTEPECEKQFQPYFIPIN
Assay: FACS direct binding titration on CHO cells with cynomolgus CTLA4 (head prints IC50)

Binder | IC50 [nM]
B1 | 4.5
B2 | 5.65
B3 | 2.66
B4 | 2.42
B5 | 2.08
B6 | 2.36
B7 | 7.74
B8 | 5.47
B9 | 6.73
B10 | 5.51
